# Values quoted from earlier work as cited in patent publication US6770020B2 (priority 2001, dated 2004).
# Conditions: cited from earlier work
substance,measurement,value
Gd-DTPA-hydroxypropylpoly(D-lysine) [Gd-DTPA-pdl],membrane permeability,membrane impermeable
